Data: publication PMC9010608

Columns and labels:
[1] = biological target: T1, Strep-HP1021 (orphan response regulator) (Helicobacter pylori 26695) (UniProt O25665); test: EMSA; conditions: EMSA: 50 mM Tris-Cl, 250 mM KCl, 5 mM DTT, pH 7.0, 100 ng/uL sheared salmon sperm DNA, 37 C 30 min, 20 uL, 4% native PAGE, footprinting: 37 C 30 min
T1 sequence: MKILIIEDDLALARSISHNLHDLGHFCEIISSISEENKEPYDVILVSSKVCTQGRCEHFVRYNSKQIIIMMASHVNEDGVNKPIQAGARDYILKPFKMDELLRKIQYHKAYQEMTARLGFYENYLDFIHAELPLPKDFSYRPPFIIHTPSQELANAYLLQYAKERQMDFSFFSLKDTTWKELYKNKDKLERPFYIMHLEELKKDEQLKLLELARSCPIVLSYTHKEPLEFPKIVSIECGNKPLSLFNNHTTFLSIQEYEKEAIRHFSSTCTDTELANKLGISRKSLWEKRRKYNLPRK

[2] = biological target: T1, Strep-HP1021 (orphan response regulator) (Helicobacter pylori 26695); test: competition; conditions: EMSA: 50 mM Tris-Cl, 250 mM KCl, 5 mM DTT, pH 7.0, 100 ng/uL sheared salmon sperm DNA, 37 C 30 min, 20 uL, 4% native PAGE, footprinting: 37 C 30 min

| Sequence | binding [1] | binding [2] |
| --- | --- | --- |
| CCATTATCACTCCAATTTTAATTCTCATTTTTTTGCGAGTTTTTGATCTTTATAAATTCTAAAGGGGTATTAAACGCACTTCTAATAACGATTTTATAGCGCTTCAAAGATATAACACTAATTCATTTTAAATAATAATTAGTTAATGAACGCTTCCAGCCGGCTTCGTCAGTCGAAACATGTACGTGATTACATCCAACCTTGATTTCGTTATGTCTTCAAGGAAAAACACTTTAAGAATAGGAGAATAAG (double strand) [PureAmt (mutated ureAB promoter probe)] | no binding | – |
| CCATTATCACTCCAATTTTAATTCTCATTTTTTTGCGAGTTTTTGATCTTTATAAATTCTAAAGGGGTATTAAACGCACTTCTAATAACGATTTTATAGCGCTTCAAAGATATAACACTAATTCATTTTAAATAATAATTAGTTAATGAACGCTTCTGTTAATCTTAGTAAATCAAAACATTGCTACAATTACATCCAACCTTGATTTCGTTATGTCTTCAAGGAAAAACACTTTAAGAATAGGAGAATAAG (double strand) [PureA (ureAB promoter, AF700 probe)] | binds | – |
| CCATTATCACTCCAATTTTAATTCTCATTTTTTTGCGAGTTTTTGATCTTTATAAATTCTAAAGGGGTATTAAACGCACTTCTAATAACGATTTTATAGCGCTTCAAAGATATAACACTAATTCATTTTAAATAATAATTAGTTAATGAACGCTTCTGTTAATCTTAGTAAATCAAAACATTGCTACAATTACATCCAACCTTGATTTCGTTATGTCTTCAAGGAAAAACACTTTAAGAATAGGAGAATAAG (double strand) [PureA cold probe (unlabeled)] | – | binds |
